The target of the experiment is T1, Recombinant GST-PKM2 (human, UniProt P14618 1-531).
T1 construct: pyruvate kinase M2 (PKM2), human cDNA in pGEX-6P-1; source: E. coli BL21 (DE3), purified (glutathione resin, dialysed in PBS)
Put plainly: pull-down; recombinant His-PGAM1 immobilised on Ni-beads, mixed with recombinant GST-PKM2 or GST-ENO1; eluate analysed by western blot. To be noted: both partners purified.

T1 sequence (P14618 whole entry): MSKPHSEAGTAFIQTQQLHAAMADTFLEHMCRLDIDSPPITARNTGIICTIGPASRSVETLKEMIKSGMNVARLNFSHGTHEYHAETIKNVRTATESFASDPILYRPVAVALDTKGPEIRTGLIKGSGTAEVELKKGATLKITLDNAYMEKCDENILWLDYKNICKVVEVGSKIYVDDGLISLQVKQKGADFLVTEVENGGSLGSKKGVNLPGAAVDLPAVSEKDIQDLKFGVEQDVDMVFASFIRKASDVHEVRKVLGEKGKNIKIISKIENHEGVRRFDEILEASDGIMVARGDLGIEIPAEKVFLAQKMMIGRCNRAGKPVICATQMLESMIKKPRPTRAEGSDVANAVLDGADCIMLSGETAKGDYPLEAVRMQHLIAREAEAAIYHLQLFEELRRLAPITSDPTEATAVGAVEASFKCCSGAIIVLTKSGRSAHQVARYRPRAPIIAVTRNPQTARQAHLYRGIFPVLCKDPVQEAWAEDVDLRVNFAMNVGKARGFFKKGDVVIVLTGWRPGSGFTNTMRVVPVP

B1: Recombinant His-PGAM1 (enzyme, human)
chain: MAAYKLVLIRHGESAWNLENRFSGWYDADLSPAGHEEAKRGGQALRDAGYEFDICFTSVQKRAIRTLWTVLDAIDQMWLPVVRTWRLNERHYGGLTGLNKAETAAKHGEAQVKIWRRSYDVPPPPMEPDHPFYSNISKDRRYADLTEDQLPSCESLKDTIARALPFWNEEIVPQIKEGKRVLIAAHGNSLRGIVKHLEGLSEEAIMELNLPTGIPIVYELDKNLKPIKPMQFLGDEETVRKAMEAVAAQGKAKK
notes: phosphoglycerate mutase 1 (PGAM1), human cDNA in pET-28a; also called His-tagged PGAM1; source: E. coli BL21 (DE3), purified (Ni resin, dialysed in PBS)
Take B1: the binding result is “binds”.

Source of the values: paper PMC11183095, “PKM2 functions as a histidine kinase to phosphorylate PGAM1 and increase glycolysis shunts in cancer” (The EMBO Journal, 2024).
